Measured values published in US20140072581A1 (Zymeworks, published 2014).
Positions count from the first letter of the chain named.

T1: CD19 on RAJI (CD19+) cells (UniProt P15391 20-556, limits assumed)
T1 construct: whole, on cells
T1 sequence (looked up): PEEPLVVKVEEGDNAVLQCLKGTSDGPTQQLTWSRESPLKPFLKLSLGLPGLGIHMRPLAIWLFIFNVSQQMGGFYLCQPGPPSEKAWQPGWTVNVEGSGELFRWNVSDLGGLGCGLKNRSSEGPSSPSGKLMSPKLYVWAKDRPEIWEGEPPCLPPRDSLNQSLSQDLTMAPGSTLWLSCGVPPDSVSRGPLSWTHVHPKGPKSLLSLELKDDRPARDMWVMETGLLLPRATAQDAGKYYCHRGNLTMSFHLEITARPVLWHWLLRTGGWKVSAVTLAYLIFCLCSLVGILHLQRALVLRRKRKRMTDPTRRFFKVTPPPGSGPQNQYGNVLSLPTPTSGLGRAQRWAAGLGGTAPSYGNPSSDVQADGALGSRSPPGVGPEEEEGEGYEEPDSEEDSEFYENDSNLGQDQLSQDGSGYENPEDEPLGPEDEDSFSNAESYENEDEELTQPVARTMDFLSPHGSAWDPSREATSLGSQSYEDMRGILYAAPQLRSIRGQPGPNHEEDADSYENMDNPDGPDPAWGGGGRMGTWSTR

B1: MOR208-CD19 FSA, variant 2176 (antibody, V domains shown)
VH: EVQLVESGGGLVKPGGSLKLSCAASGYTFTSYVMHWVRQAPGKGLEWIGYINPYNDGTKYNEKFQGRVTISSDKSISTAYMELSSLRSEDTAMYYCARGTYYYGTRVFDYWGQGTLVTVSS
VL: DIVMTQSPATLSLSPGERATLSCRSSKSLQNVNGNTYLYWFQQKPGQSPQLLIYRMSNLNSGVPDRFSGSGSGTEFTLTISSLEPEDFAVYYCMQHLEYPITFGAGTKLEIK
notes: Control; also called 2176 A; anti-CD19 warhead from MOR208
B2: scMAB_LCI_CD3xCD19_GS20-GS24_GS20-GS24, variant 1840 (bispecific antibody)
chain 1: QVQLVQSGGGVVQPGRSLRLSCKASGYTFTRYTMHWVRQAPGKGLEWIGYINPSRGYTNYNQKVKDRFTISRDNSKNTAFLQMDSLRPEDTGVYFCARYYDDHYCLDYWGQGTPVTVSSGGGGSGGGGSGGGGSGGGGSDIQMTQSPSSLSASVGDRVTITCSASSSVSYMNWYQQTPGKAPKRWIYDTSKLASGVPSRFSGSGSGTDYTFTISSLQPEDIATYYCQQWSSNPFTFGQGTKLQITRTVAAPSVFIFPPSDEQLKSGTASVVCLLNNFYPREAKVQWKVDNALQSGNSQESVTEQDSKDSTYSLSSTLTLSKADYEKHKVYACEVTHQGLSSPVTKSFNRGECGGGGSGGGGSGGGGSGGGGSGGGGSTKGPSVFPLAPSSKSTSGGTAALGCLVKDYFPEPVTVSWNSGALTSGVHTFPAVLQSSGLYSLSSVVTVPSSSLGTQTYICNVNHKPSNTKVDKKVEPKSCDKTHTCPPCPAPELLGGPSVFLFPPKPKDTLMISRTPEVTCVVVDVSHEDPEVKFNWYVDGVEVHNAKTKPREEQYNSTYRVVSVLTVLHQDWLNGKEYKCKVSNKALPAPIEKTISKAKGQPREPQVYVYPPSRDELTKNQVSLTCLVKGFYPSDIAVEWESNGQPENNYKTTPPVLDSDGSFALVSKLTVDKSRWQQGNVFSCSVMHEALHNHYTQKSLSLSPGK
chain 2: not shown
notes: also called 1840 A
B3: scMAB_LCI_CD3xCD19_GS20-GS24_GS20-GS24_SS, variant 1842 (bispecific antibody, human IgG1, kappa)
chain 1: B2 chain 1 with G44C, Q238C
chain 2: not shown
notes: Heterodimeric IgG1 Fc; the CH3 mutations are already in the entries; also called 1842 B
B4: scMAB_LL_CD3xCD19_HH41_GSE34, variant 1846 (bispecific antibody, human IgG1, kappa)
chain 1: DIQMTQSPSSLSASVGDRVTITCSASSSVSYMNWYQQTPGKAPKRWIYDTSKLASGVPSRFSGSGSGTDYTFTISSLQPEDIATYYCQQWSSNPFTFGQGTKLQITRTVAAPSVFIFPPSDEQLKSGTASVVCLLNNFYPREAKVQWKVDNALQSGNSQESVTEQDSKDSTYSLSSTLTLSKADYEKHKVYACEVTHQGLSSPVTKSFNRGECGGSGGGSGSSADDAKKDAAKKDDAKKDDAKKDGGGSGGGSGQVQLVQSGGGVVQPGRSLRLSCKASGYTFTRYTMHWVRQAPGKGLEWIGYINPSRGYTNYNQKVKDRFTISRDNSKNTAFLQMDSLRPEDTGVYFCARYYDDHYCLDYWGQGTPVTVSSASTKGPSVFPLAPSSKSTSGGTAALGCLVKDYFPEPVTVSWNSGALTSGVHTFPAVLQSSGLYSLSSVVTVPSSSLGTQTYICNVNHKPSNTKVDKKVEPKSCDKTHTCPPCPAPELLGGPSVFLFPPKPKDTLMISRTPEVTCVVVDVSHEDPEVKFNWYVDGVEVHNAKTKPREEQYNSTYRVVSVLTVLHQDWLNGKEYKCKVSNKALPAPIEKTISKAKGQPREPQVYVYPPSRDELTKNQVSLTCLVKGFYPSDIAVEWESNGQPENNYKTTPPVLDSDGSFALVSKLTVDKSRWQQGNVFSCSVMHEALHNHYTQKSLSLSPGK
chain 2: not shown
notes: A, B and C are the chain A : chain B DNA ratios used in expression (1:1, 2:1, 1:2); also called 1846 A; 1846 B
B5: scMAB_LL_CD3xCD19_HH41_HH41, variant 1844 (bispecific antibody, human IgG1, kappa)
chain 1: B4 chain 1
chain 2: not shown
notes: B and C are the chain A : chain B DNA ratios used in expression (2:1 and 1:2); also called 1844 B; 1844 C
B6: scMAB_LCI_CD3xCD19_GS15-GS24_GS15-GS24, variant 1841 (bispecific antibody, human IgG1, kappa)
chain 1: QVQLVQSGGGVVQPGRSLRLSCKASGYTFTRYTMHWVRQAPGKGLEWIGYINPSRGYTNYNQKVKDRFTISRDNSKNTAFLQMDSLRPEDTGVYFCARYYDDHYCLDYWGQGTPVTVSSGGGGSGGGGSGGGGSDIQMTQSPSSLSASVGDRVTITCSASSSVSYMNWYQQTPGKAPKRWIYDTSKLASGVPSRFSGSGSGTDYTFTISSLQPEDIATYYCQQWSSNPFTFGQGTKLQITRTVAAPSVFIFPPSDEQLKSGTASVVCLLNNFYPREAKVQWKVDNALQSGNSQESVTEQDSKDSTYSLSSTLTLSKADYEKHKVYACEVTHQGLSSPVTKSFNRGECGGGGSGGGGSGGGGSGGGGSGGGGSTKGPSVFPLAPSSKSTSGGTAALGCLVKDYFPEPVTVSWNSGALTSGVHTFPAVLQSSGLYSLSSVVTVPSSSLGTQTYICNVNHKPSNTKVDKKVEPKSCDKTHTCPPCPAPELLGGPSVFLFPPKPKDTLMISRTPEVTCVVVDVSHEDPEVKFNWYVDGVEVHNAKTKPREEQYNSTYRVVSVLTVLHQDWLNGKEYKCKVSNKALPAPIEKTISKAKGQPREPQVYVYPPSRDELTKNQVSLTCLVKGFYPSDIAVEWESNGQPENNYKTTPPVLDSDGSFALVSKLTVDKSRWQQGNVFSCSVMHEALHNHYTQKSLSLSPGK
chain 2: not shown
notes: Heterodimeric IgG1 Fc; the CH3 mutations are already in the entries; also called 1841 B
B7: scMAB_LCI_CD3xCD19_GS15-GS24_GS15-GS24_SS, variant 1843 (bispecific antibody, human IgG1, kappa)
chain 1: B6 chain 1 with G44C, Q233C
chain 2: not shown
notes: Heterodimeric IgG1 Fc; the CH3 mutations are already in the entries; also called 1843 B
B8: scMAB_LL_CD3xCD19_GSE34_GSE34, variant 1845 (bispecific antibody)
chain 1: DIQMTQSPSSLSASVGDRVTITCSASSSVSYMNWYQQTPGKAPKRWIYDTSKLASGVPSRFSGSGSGTDYTFTISSLQPEDIATYYCQQWSSNPFTFGQGTKLQITRTVAAPSVFIFPPSDEQLKSGTASVVCLLNNFYPREAKVQWKVDNALQSGNSQESVTEQDSKDSTYSLSSTLTLSKADYEKHKVYACEVTHQGLSSPVTKSFNRGECSGGGSGGGSEGGGSEGGGSEGGGSEGGGSGGGSGQVQLVQSGGGVVQPGRSLRLSCKASGYTFTRYTMHWVRQAPGKGLEWIGYINPSRGYTNYNQKVKDRFTISRDNSKNTAFLQMDSLRPEDTGVYFCARYYDDHYCLDYWGQGTPVTVSSASTKGPSVFPLAPSSKSTSGGTAALGCLVKDYFPEPVTVSWNSGALTSGVHTFPAVLQSSGLYSLSSVVTVPSSSLGTQTYICNVNHKPSNTKVDKKVEPKSCDKTHTCPPCPAPELLGGPSVFLFPPKPKDTLMISRTPEVTCVVVDVSHEDPEVKFNWYVDGVEVHNAKTKPREEQYNSTYRVVSVLTVLHQDWLNGKEYKCKVSNKALPAPIEKTISKAKGQPREPQVYVYPPSRDELTKNQVSLTCLVKGFYPSDIAVEWESNGQPENNYKTTPPVLDSDGSFALVSKLTVDKSRWQQGNVFSCSVMHEALHNHYTQKSLSLSPGK
chain 2: not shown
notes: A, B and C are the chain A : chain B DNA ratios used in expression (1:1, 2:1, 1:2); also called 1845 A; 1845 B

Biological target: T2, CD3 on HBP-ALL (CD3+) cells (UniProt P07766 23-207)
T2 construct: whole, on cells; CD3 is a multi-chain complex
Test: live cell ELISA on HBP-ALL (CD3+) cells
Method: (§1) These variants were tested for their ability to bind to cells expressing the target antigen using a live cell ELISA binding assay using filter plates and wash steps carried out using a vacuum manifold (method developed by Anne Marcil at the National Research Council, Montreal, Canada). The method was carried out as follows. Cells were maintained in exponential growth phase and then washed, counted and distributed at 10E5 cells per well in 50% medium, 50% blocking buffer. Dilutions of variants in blocking buffer were added to the cells and incubated for 1 hour at 4° C. After collection and four washes in medium, an HRP-conjugated goat anti-human IgG was added to cells which were incubated for 1 hour at 4° C. After collection and four washes in medium and 3 washes in PBS, TMB substrate was added to cells which were incubated for 25 minutes at room temperature. The reaction was stopped by addition of H₂SO4 and OD read at 450 nm. The ELISA results are depicted in Tables 17 and 18. A, B, and C refer to the ratio of Chain A to Chain B used in expression of the variant: Ratio A=Chain A/Chain B=1:1 A/B=50%/50%; Ratio B=Chain A/Chain B=2:1 A/B=66%/34%; Ratio C=Chain A/Chain B=1:2 A/B=34%/66%.

Q: Does B1 bind?
A: no binding (tested: OD450 = or < negative control 1041)

Biological target: T1, CD19 on RAJI (CD19+) cells
Test: live cell ELISA on RAJI (CD19+) cells; OD450 grade at 1/60 dilution
Method: as §1

Q: B2 was tested. Which OD450 did it give?
A: > 2 od

Q: For B3, which OD450 is on record?
A: > 2 od

Q: How did the OD450 turn out when B4 was run?
A: > 2 od

Q: Which OD450 does the source give for B5 here?
A: > 2 od

Q: Which OD450 does the source give for B6 here?
A: > 2 od

Q: With B7 as the binder, how does the OD450 read?
A: > 2 od

Q: Which OD450 does the source give for B8 here?
A: > 2 od

Biological target: T2, CD3 on HBP-ALL (CD3+) cells
Test: live cell ELISA on HBP-ALL (CD3+) cells; OD450 grade at 1/60 dilution
Method: as §1

Q: Which OD450 does the source give for B2 here?
A: 1 to 2 od

Q: For B3, which OD450 is on record?
A: 1 to 2 od

Q: With B4 as the binder, how does the OD450 read?
A: 1 to 2 od

Q: For B5, which OD450 is on record?
A: 1 to 2 od

Q: B6 was tested. Which OD450 did it give?
A: 1 to 2 od

Q: How did the OD450 turn out when B7 was run?
A: 1 to 2 od

Q: Which OD450 does the source give for B8 here?
A: 1 to 2 od
